Assay results as given in PMC11109247.
pKd: −log10 of the molar value. “And” between values parts separate entries of the source, which are not always exact repeats. Equal values may be shown once.

How the values were obtained:
[1] = biological target: HeV G ectodomain (Hendra virus attachment glycoprotein, residues 71-604), Strep-tagged (Hendra virus) (UniProt O89343); assay: SDS-PAGE without reduction and boiling
[2] = biological target: NiVMY G ectodomain (Nipah virus Malaysia attachment glycoprotein, residues 71-602), Strep-tagged (Nipah virus (Malaysia strain)) (UniProt Q9IH62); assay: SDS-PAGE without reduction and boiling
[3] = biological target: prefusion soluble NiV F (sF; NiVBD fusion protein residues 26-482 with GCNt motif) (Nipah virus Bangladesh (NiVBD)); assay: BLI
[4] = biological target: prefusion soluble NiV F (sF; NiVBD fusion protein residues 26-482 with GCNt motif) (Nipah virus Bangladesh (NiVBD)); assay: MST

Substance: HeV G ectodomain (Hendra virus attachment glycoprotein, residues 71-604), Strep-tagged (from UniProt O89343 71-604) (domain or fragment)
- stoichiometry N [1]: 4 and 2

Substance: NiVMY G ectodomain (Nipah virus Malaysia attachment glycoprotein, residues 71-602), Strep-tagged (from UniProt Q9IH62 71-602) (domain or fragment)
- stoichiometry N [2]: 4 and 2

Substance: P-59 (peptide of NiVBD G, 233-247 aa)
- pKd [3]: 6.72
- pKd [4]: 5.30
